# Test results: patent US6429014B1, “Monoterpene synthases from grand fir (Abies grandis)” (Washington State University Research Foundation, priority 1997, dated 2002)
# Columns and labels:
# [1] = Terpene synthase assay and GC-MS / chiral GC product identification of recombinant enzymes expressed from pSBET in E. coli BL21(DE3) (Example 11); assay type: biochemical; settings: extracts of induced cells
# Method: For functional expression, bacterial strains E. coli BL21(DE3)/pSAG2(M), E. coli BL21(DE3)/pSAG2(R), E. coli BL21(DE3)/pSAG3(R), E. coli BL21(DE3)/pSAG6(M), E. coli BL21(DE3/pSAG6(R), E. coli BL21(DE3)/pSAG8(M), E. coli BL21(DE3)/pSAG9(M), E. coli BL21(DE3)/pSAG11(M) and E. coli BL21(DE3)/SAG11(R) were grown to A600=0.5 at 37° C. in 5 ml of Luria-Bertani medium (Sambrook, J., Fritsch, E. F., and Maniatis, T. (1989) Molecular Cloning: A Laboratory Manual, 2nd Ed., pp. 7.20-7.43, Cold Spring Harbor, N.Y.) supplemented with 30 μg kanamycin/ml. Cultures were then induced by addition of 1 mM isopropyl-1-thio-β-D-galactopyranoside and grown for another 12 h at 20° C. Cells were harvested by centrifugation and disrupted by sonication followed by centrifugation, and the resulting soluble enzyme preparations were assayed for monoterpene, sesquiterpene and diterpene synthase activity using the appropriate radiolabeled substrate as described previously (Bohlmann, J., Steele, C. L., and Croteau, R. (1997) J. Biol. Chem. 272, 21784-21792). This assay involves the isolation and separation of terpene olefins and oxygenated terpenes by column chromatography on silica, followed by scintillation counting to determine conversion rate. GC-MS analysis is employed for product identification, by comparison of retention times and mass spectra to those of authentic standards (Bohlmann, J., Steele, C. L., and Croteau, R. (1997) J. Biol Chem. 272, 21784-21792); assignment of absolute configuration is based upon chiral column capillary GC and matching of retention time to that of the corresponding enantiomer (Lewinsohn, E., Savage, T. J., Gijzen, M., and Croteau, R. (1993) Phytochem. Anal. 4, 220-225). To insure production of sufficient material for identification, the standard assay (Bohlmann, J., Steele, C. L., and Croteau, R. (1997) J. Biol. Chem. 272, 21784-21792) was scaled up by a factor of 20.
# Initially, the four pSBET plasmids pSAG6(M), pSAG8(M), pSAG9(M) and pSAG11(M), containing the full-length cDNA inserts of ag6 (SEQ ID NO:64), ag8 (SEQ ID NO:66), ag9 (SEQ ID NO:77) and ag11 (SEQ ID NO:68), respectively, were expressed in E. coli BL21(DE3). Extracts of the induced, transformed bacterial cells were assayed for monoterpene, sesquiterpene and diterpene synthase activity using the corresponding labeled C10, C15 and C20 prenyl diphosphate substrates (Bohlmann, J., Steele, C. L., and Croteau, R. (1997) J. Biol. Chem. 272, 21784-21792). […] Since it is known that the relatively large amino-terminal transit peptide of plant terpene synthases can impair expression of the functional preprotein in E. coli and promote the formation of intractable inclusion bodies (Williams, D. C., McGarvey, D. J., Katahira, E. J., and Croteau, R. (1998) Biochemisiry 37, 12213-12220), the“pseudomature” forms of ag6 (SEQ ID NO:64) and ag11 (SEQ ID NO:68) were prepared by truncation of the cDNAs to insert a starting methionine immediately upstream of their tandem arginine elements (R59R 60 for ag6 (SEQ ID NO:64), R^71R^72 for ag11 (SEQ ID NO:68)) for expression in E. coli BL21(DE3)/pSAG6(R) and E. coli BL21(DE3)/pSAG11(R). Similar truncations of previously characterized ag2.2 (SEQ ID NO:1) (myrcene synthase, R^64R^65) and ag3.18 (SEQ ID NO:3) ((−)-pinene synthase, (SEQ ID NO:5) R^64R^65) (Bohlmann, J., Steele, C. L., and Croteau, R. (1997) J. Biol. Chem. 272, 21784-21792) were prepared for expression from pSBET as controls for the possible alteration of product yield and distribution resulting from truncation.
# Monoterpenes generated at preparative scale from geranyl diphosphate by the recombinant enzymes encoded by ag6 (SEQ ID NO:64), ag8 (SEQ ID NO:66), ag9 (SEQ ID NO:77) and ag11 (SEQ ID NO:68) were analyzed by GC-MS and chiral phase (β-cyclodextrin) capillary GC, and identified by comparison of retention times and mass spectra to authentic standards (FIGS. 6-9). […] The enzyme encoded by ag6 (SEQ ID NO:65) is therefore designated as (−)-1S,4R-camphene synthase. […]
# [2] = Monoterpene synthase assay and product identification with extracts of E. coli expressing Grand fir cDNA clones (Example 3); assay type: biochemical
# Method: For expression, bacterial strains E. coil XLOLR/pAG3.18, E. coil XLOLR/pAG3.48, E. coli XL1-Blue/pGAG2.2, E. coli XL1-Blue/pGAG3.18, and E. coil BL21(DE3)/pSBAG10were grown to A600=0.5 at 37° C. in 5 ml of LB medium (Sambrock, J., Fritsch, E. F., and Maniatis, T. (1989) Molecular Cloning: A Laboratory Manual, 2d Ed., Cold Spring Harbor Laboratory, Cold Spring Harbor, N.Y.) supplemented with 100 μg ampicillin/ml or 30 μg kanamycin/ml as determined by the vector. Cultures were then induced by addition of 1 mM isopropyl-1-thio-β-D-galactopyranoside and grown for another 12 h at 20° C. Cells were harvested by centrifugation (2000×g, 10 min) and resuspended in either 1 ml monoterpene synthase assay buffer [50 mM Tris/HCl (pH 7.5), 500 mM KCl, 1 mM MnCl2, 5 mM dithiothreitol, 0.05% (w/v) NaHSO3 and 10% (v/v) glycerol], 1 ml sesquiterpene synthase assay buffer [10 mM dibasic potassium phosphate, 1.8 mM monobasic potassium phosphate (pH 7.3), 140 mM NaCl, 10 mM MgCl2, 5 mM dithiothreitol, 0.05% (w/v) NaHSO3 and 10% (v/v) glycerol], or 1 ml diterpene synthase assay buffer [30 mM Hepes (N-2-hydroxyethylpiperazine-N-′2-ethanesulfonic acid, pH 7.2), 7.5 mM MgCl2, 5 mM dithiothreitol, 10 µM MnCl2, 0.05% (w/v) NaHSO3 and 10% (v/v) glycerol].
# Cells were disrupted by sonication (Braun-Sonic 2000 with microprobe at maximum power for 15 seconds at 0-4° C.), the homogenates were cleared by centrifugation (18,000×g, 10 min), and 1 ml of the resulting supernatant was assayed for monoterpene synthase activity with 2.5 μM of [1-^3H]geranyl diphosphate, for sesquiterpene synthase activity with 3.5 μM [1-^3H]farnesyl diphosphate, or for diterpene synthase activity with 5 μM [1- ^3H]geranylgeranyl diphosphate following standard protocols (Croteau, R., and Cane, D. E. (1985) Methods Enzymol. 110:383-405; LaFever, R. E., Stofer Vogel, B., and Croteau, R. (1994) Arch. Biochem. Biophys. 313:139-149; Dehal, S. S., and Croteau, R. (1988) Arch. Biochem. Biophys. 261:346-356). In the case of the monoterpene synthase and sesquiterpene synthase assays, the incubation mixture was overlaid with 1 ml pentane to trap volatile products. In all cases, after incubation at 31° C. for 2 h, the reaction mixture was extracted with pentane (3×1 ml) and the combined extract was passed through a 1.5 ml column of anhydrous MgSO4 and silica gel (Mallinckrodt 60 Å) to provide the terpene hydrocarbon fraction free of oxygenated metabolites. The columns were subsequently eluted with 3×1 ml of ether to collect any oxygenated products, and an aliquot of each fraction was taken for liquid scintillation counting to determine conversion rate.
# Product Identification—To obtain sufficient product for analysis by radio-GLC (gas liquid chromatography), chiral capillary GLC and GLC-MS (mass spectrum/spectrometry), preparative-scale enzyme incubations were carried out. Thus, the enzyme was prepared from 50 ml of cultured bacterial cells by extraction with 3 ml of assay buffer as above, and the extracts were incubated with excess substrate overnight at 31° C. The hydrocarbon fraction was isolated by elution through MgSO4-silica gel as before, and the pentane eluate was concentrated for evaluation by capillary radio-GLC as described (Croteau, R., and Satterwhite, D. M. (1990) J. Chromatogr. 500:349-354), by chiral column capillary GLC (Lewinsohn, E., Savage, T. J., Gijzen, M., and Croteau, R. (1993) Phytochem. Anal. 4:220-225), and by combined GLC-MS [Hewlett-Packard 6890 GC-MSD with cool (40° C.) on-column injection, detection via electron impact ionization (70 eV), He carrier at 0.7 psi., column:0.25 mm i.d.×30 m fused silica with 0.25 μm film of 5MS (Hewlett-Packard) programmed from 35° C. (5 min hold) to 230° C. at 5° C./min].
molecule,measurement,setting,value
"AG2.2: recombinant myrcene synthase from Grand fir encoded by cDNA clone AG2.2 (SEQ ID NO:1; protein SEQ ID NO:2) (protein, listed as Abies grandis) MALVSISPLASKSCLRKSLISSIHEHKPPYRTIPNLGMRRRGKSVTPSMSISLATAAPDDGVQRRIGDYHSNIWDDDFIQSLSTPYGEPSYQERAERLIVEVKKIFNSMYLDDGRLMSSFNDLMQRLWIVDSVERLGIARHFKNEITSALDYVFRYWEENGIGCGRDSIVTDLNSTALGFRTLRLHGYTVSPEVLKAFQDQNGQFVCSPGQTEGEIRSVLNLYRASLIAFPGEKVMEEAEIFSTRYLKEALQKIPVSALSQEIKFVMEYGWHTNLPRLEARNYIDTLEKDTSAWLNKNAGKKLLELAKLEFNIFNSLQQKELQYLLRWWKESDLPKLTFARHRHVEFYTLASCIAIDPKHSAFRLGFAKMCHLVTVLDDIYDTFGTIDELELFTSAIKRWNSSEIEHLPEYMKCVYMVVFETVNELTREAEKTQGRNTLNYVRKAWEAYFDSYMEEAKWISNGYLPMFEEYHENGKVSSAYRVATLQPILTLNAWLPDYILKGIDFPSRFNDLASSFLRLRGDTRCYKADRDRGEEASCISCYMKDNPGSTEEDALNHINAMVNDIIKELNWELLRSNDNIPMLAKKHAFDITRALHHLYIYRDGFSVANKETKKLVMETLLESMLF",terpene synthase activity on expression from pSBET in E. coli BL21(DE3),[1],high level expression of activity
same,"prenyl diphosphate substrate utilized (geranyl, farnesyl, geranylgeranyl diphosphate tested)","[2]; cell-free extract of induced E. coli, tritium labeled substrates",only with geranyl diphosphate as substrate
same,monoterpene products formed from geranyl diphosphate,"[2]; radio-GLC, GLC-MS, chiral GLC",the only product was shown to be myrcene
